Read-outs that look alike come from different tables or passages of the source.
How the values were obtained:
PCSK9 gene splice site [1] = format: cell-based, cynomolgus monkey
Protocol: (§1) PCSK9 gRNAs were co-transfected with an equivalent amount of in vitro transcribed ABE8.8 mRNA MA002 (1:1 ratio by weight) into primary hepatocytes and processed as described in detailed methods. In one set of experiments, extracted genomic DNA was analyzed for base editing of the target splice site with next-generation sequencing of PCR amplicons generated around the target sites. Samples were prepared using the Nextera XT DNA library preparation kit (Illumina) according to the manufacturer's protocol. Briefly, two rounds of PCR were performed first to amplify the region of interest and second to add DNA sequences required for next generation sequencing and sample identification to the initial product. The final amplicon was sequenced on the Illumina MiSeq instrument according to the manufacturer's protocol.
(§2) Similarly, three gRNAs (GA098, GA099, GA100) were synthesized matching the 5′-[…]-3′ (SEQ ID NO: 15) (GA091) human protospacer sequence, as well as four gRNAs (GA067/GA101, GA102, GA103, GA347) matching the 5′-[…]-3′ (SEQ ID NO: 14) (GA067) cynomolgus protospacer sequence, but with more extensive chemical modifications of various kinds (Table 1). GA066 and GA095 contain the same chemical composition and modification pattern, as do GA067 and GA101 with one another. […] Each of the gRNAs described in Table 8, with an equivalent amount of in vitro transcribed ABE8.8 mRNA MA002 (1:1 ratio by weight), were co-transfected into primary human hepatocytes and primary cynomolgus hepatocytes via MessengerMax reagent, using various dilutions to assess for editing activity at different concentrations of test article. Three days after transfection, genomic DNA was harvested from the hepatocytes, and then assessed for base editing of the target splice site with next-generation sequencing.
(§3) Modifications and/or truncations to either the spacer or tracr portion of the gRNA was assessed by alteration of the GA066 spacer (5′-[…]-3′ (SEQ ID NO: 13)) (Table 12). […] Each of the gRNAs with an equivalent amount of in vitro transcribed ABE8.8 mRNA (1:1 ratio by weight) were co-transfected into primary human hepatocytes and primary cynomolgus hepatocytes and processed as described in detailed methods.
Lipid nanoparticles containing ABE8.8 mRNA and a gRNA matching the human/cynomolgus 5′-[…]-3′ (SEQ ID NO: 13) sequence (GA066) that targets the splice donor at the 5′ end of PCSK9 intron 1 were formulated at a 1:1 ratio by weight. The LNPs were administered to primary human hepatocytes and primary cynomolgus hepatocytes, using various dilutions to assess for editing activity at different concentrations of test article. LNP containing Cas9 mRNA and a gRNA matching a protospacer sequence in another gene, ANGPTL3, as a positive control was used for these experiments.
Plating, culturing, and transfection of primary hepatocytes. Primary human liver hepatocytes (PHH) and primary cynomolgus liver hepatocytes (PCH) from BioIVT were cultured per the manufacturer's protocol. Briefly, primary human hepatocytes and primary cyno hepatocytes were obtained as frozen aliquots from BioIVT.

PCSK9 gene splice site [2] = format: cell-based, human; conditions: for editing activities, ranking of guides: ABE8.8 mRNA MA002
Protocol: as §1, §2
as §3, with “methods. […]” for “methods.”

ANGPTL3 gene [3] = assay: ANGPTL3 gRNA/SpCas9 editing in primary human hepatocytes (Table 3); format: cell-based
Protocol: (§4) In set of experiments, PCSK9 gRNAs were co-transfected with an equivalent amount (1:1 ratio by weight) of in vitro transcribed commercially available SpCas9 mRNA MS002 purchased from TriLink Biotechnologies into primary human hepatocytes at 2500, 500, or 100 ng/RNA/mL and processed as described in detailed methods. Extracted genomic DNA was analyzed for gene editing at the target site with next-generation sequencing of PCR amplicons generated around the target sites. Samples were prepared using the Nextera XT DNA library preparation kit (Illumina) according to the manufacturer's protocol. Briefly, two rounds of PCR were performed first to amplify the region of interest and second to add DNA sequences required for next generation sequencing and sample identification to the initial product. The final amplicon was sequenced on the Illumina MiSeq instrument according to the manufacturer's protocol. A wide range of editing activities (Table 2) were observed. In a second set of experiments, ANGPTL3 gRNAs were co-transfected with an equivalent amount of in vitro transcribed SpCas9 mRNA (1:1 ratio by weight) into primary human hepatocytes and processed and analyzed similarly (Table 3).
(§5) Plating, culturing, and transfection of primary hepatocytes. Primary human liver hepatocytes (PHH) and primary cynomolgus liver hepatocytes (PCH) from BioIVT were cultured per the manufacturer's protocol. Briefly, primary human hepatocytes and primary cyno hepatocytes were obtained as frozen aliquots from BioIVT. Four lots of primary human hepatocytes, each derived from a de-identified individual donor, were used for the experiments: STL (main donor) was used for all experiments, including screening experiments and off-target experiments; HLY, JLP, and TLY were used for off-target experiments. The HFG lot of primary cyno hepatocytes were used for experiments. Following the manufacturer's instructions, cells were thawed and rinsed prior to plating in 24-well plates that had been coated with bovine collagen overnight, with a density of approximate 350,000 cells/well in INVITROGRO hepatocyte medium supplemented with TORPEDO antibiotic mix (BioIVT). The cells were thawed and resuspended in hepatocyte thawing medium followed by centrifugation at 100 g for 10 min at 4° C. The supernatant was discarded, and the pelleted cells resuspended in hepatocyte plating medium. Each vial contains approximately 5 million cells that were used for plating one 24-well plate. Plated cells were allowed to settle and adhere for 4-6 h in a tissue culture incubator at 37° C. under 5% CO2 atmosphere. After incubation, cells were checked for monolayer formation. The incubating media were then replaced with fresh hepatocyte maintenance media (complete INVITROGRO medium obtained from BioIVT, the cell line provider). The cells thus became ready for transfection. Each of the gRNAs were co-transfected with an equivalent amount of in vitro transcribed ABE8.8 mRNA (1:1 ratio by molecular weight) into primary human hepatocytes via MessengerMax reagent (Lipofectamine), using various dilutions to assess for editing activity at different concentrations of test article. MessengerMAX from Thermo Fisher is used for transfection. Solution A: desired amount of guide RNA is mixed with 1:1 wt ratio of mRNA in OptiMEM. Solution B: MessengerMAX in OptiMEM. After mixing solutions A and B, the mixture was incubated at room temperature for 20 min. 60 μL of the incubated solution was added dropwise to each cell wells. For protospacer sequences that were a perfect match to the corresponding cynomolgous monkey PCSK9 or ANGPTL3 gene sequence, each gRNA was also co-transfected with an equivalent amount of ABE8.8 mRNA (1:1 ratio by molecular weight) into primary cynomolgous hepatocytes, and followed the same transfection protocol. The cells were then allowed to remain at 37° C. for 3 days. […]

ANGPTL3 gene [4] = assay: ANGPTL3 gRNA/SpCas9 editing in primary cynomolgus hepatocytes (Table 3); format: cell-based, cynomolgus monkey
Protocol: as §4, §5

| Molecule | Human Primary Hepatocyte Editing % 100 ng/ml (ANGPTL3 gene [3]) | Human Primary Hepatocyte Editing % 500 ng/mL (ANGPTL3 gene [3]) | Cyno Primary Hepatocyte Editing % 100 ng/mL (ANGPTL3 gene [4]) | Cyno Primary Hepatocyte Editing % 500 ng/ml (ANGPTL3 gene [4]) | also measured |
| --- | --- | --- | --- | --- | --- |
| GA073: PCSK9 gRNA; protospacer GCTTACCTGTCTGTGGAAGC (SEQ ID NO: 67), splice donor of intron 4 (nucleic acid, listed as RNA; modified_base 1: mod_base = OTHER; note = 2'-O-Methyl-guanosine phosphorothioate; modified_base 2: mod_base = OTHER; note = 2'-O-Methyl-cytidine phosphorothioate; modified_b) guide: GCTTACCTGTCTGTGGAAGCGTTTTAGAGCTAGAAATAGCAAGTTAAAATAAGGCTAGTCCGTTATCAACTTGAAAAAGTGGCACCGAGTCGGTGCTTTT |  |  |  |  | Cynomolgous Primary Hepatocytes-splice site editing % 1250 ng/mL (PCSK9 gene splice site [1]): 24.7%; Cynomolgous Primary Hepatocytes-splice site editing % 2500 ng/mL (PCSK9 gene splice site [1]): 23.2%; Cynomolgous Primary Hepatocytes-splice site editing % 5000 ng/mL (PCSK9 gene splice site [1]): 29.2%; Human Primary Hepatocytes-splice site editing % 1250 ng/mL (PCSK9 gene splice site [2]): 11.2%; Human Primary Hepatocytes-splice site editing % 2500 ng/mL (PCSK9 gene splice site [2]): 17.5%; Human Primary Hepatocytes-splice site editing % 5000 ng/mL (PCSK9 gene splice site [2]): 25.4%; editing activities, ranking of guides (PCSK9 gene splice site [2]): performing the best |
| GA074: PCSK9 gRNA; protospacer TGCTTACCTGTCTGTGGAAG (SEQ ID NO: 68), splice donor of intron 4 (nucleic acid, listed as RNA; modified_base 1: mod_base = OTHER; note = 2'-O-Methyl-uridine phosphorothioate; modified_base 2: mod_base = OTHER; note = 2'-O-Methyl-guanosine phosphorothioate; modified_ba) guide: TGCTTACCTGTCTGTGGAAGGTTTTAGAGCTAGAAATAGCAAGTTAAAATAAGGCTAGTCCGTTATCAACTTGAAAAAGTGGCACCGAGTCGGTGCTTTT |  |  |  |  | Cynomolgous Primary Hepatocytes-splice site editing % 1250 ng/mL (PCSK9 gene splice site [1]): 17.5%; Cynomolgous Primary Hepatocytes-splice site editing % 2500 ng/mL (PCSK9 gene splice site [1]): 20.1%; Cynomolgous Primary Hepatocytes-splice site editing % 5000 ng/mL (PCSK9 gene splice site [1]): 18.7%; Human Primary Hepatocytes-splice site editing % 1250 ng/mL (PCSK9 gene splice site [2]): 11.6%; Human Primary Hepatocytes-splice site editing % 2500 ng/mL (PCSK9 gene splice site [2]): 18.8%; Human Primary Hepatocytes-splice site editing % 5000 ng/mL (PCSK9 gene splice site [2]): 23.8%; editing activities, ranking of guides (PCSK9 gene splice site [2]): performing the best |
| GA142: ANGPTL3 gRNA; protospacer TGAAAAACTTGAGAGTTGCT (SEQ ID NO: 140) (nucleic acid, 2'-O-methyl at 1, 2, other sugars, backbone and T or U not given here; further chemistry not fully specified) guide: UGAAAAACTTGAGAGTTGCTGTTTTAGAGCTAGAAATAGCAAGTTAAAATAAGGCTAGTCCGTTATCAACTTGAAAAAGTGGCACCGAGTCGGTGCTTTT |  |  |  |  | Human Primary Hepatocyte Editing % 100 ng/ml (ANGPTL3 gene [3]; 100 ng/ml, SpCas9 mRNA 1:1 by weight): 10.50%; Human Primary Hepatocyte Editing % 500 ng/mL (ANGPTL3 gene [3]; 500 ng/mL, SpCas9 mRNA 1:1 by weight): 24.90%; Cyno Primary Hepatocyte Editing % 100 ng/mL (ANGPTL3 gene [4]; 100 ng/mL, SpCas9 mRNA 1:1 by weight): 20.09%; Cyno Primary Hepatocyte Editing % 500 ng/ml (ANGPTL3 gene [4]; 500 ng/ml, SpCas9 mRNA 1:1 by weight): 27.59% |
| GA143: ANGPTL3 gRNA; protospacer TTAATTCAACATCGAATAGA (SEQ ID NO: 141) (nucleic acid, 2'-O-methyl at 1, 2, other sugars, backbone and T or U not given here; further chemistry not fully specified) guide: UUAATTCAACATCGAATAGAGTTTTAGAGCTAGAAATAGCAAGTTAAAATAAGGCTAGTCCGTTATCAACTTGAAAAAGTGGCACCGAGTCGGTGCTTTT | 9.30% | 19.36% | 14.84% | 21.16% |  |
| GA145: ANGPTL3 gRNA; protospacer CATTATATTCAGGTAGTCCA (SEQ ID NO: 143) (nucleic acid, 2'-O-methyl at 1, 2, other sugars and backbone not given here; further chemistry not fully specified) guide: CATTATATTCAGGTAGTCCAGTTTTAGAGCTAGAAATAGCAAGTTAAAATAAGGCTAGTCCGTTATCAACTTGAAAAAGTGGCACCGAGTCGGTGCTTTT | 12.55% | 26.33% | 18.77% | 30.34% |  |
| GA148: ANGPTL3 gRNA; protospacer ACAAAACTTCAATGAAACGT (SEQ ID NO: 146) (nucleic acid, 2'-O-methyl at 1, 2, other sugars and backbone not given here; further chemistry not fully specified) guide: ACAAAACTTCAATGAAACGTGTTTTAGAGCTAGAAATAGCAAGTTAAAATAAGGCTAGTCCGTTATCAACTTGAAAAAGTGGCACCGAGTCGGTGCTTTT | 12.01% | 31.67% | 28.57% | 69.75% |  |
| GA151: ANGPTL3 gRNA; protospacer GAGAACTACAAATATGGTTT (SEQ ID NO: 149) (nucleic acid, 2'-O-methyl at 1, 2, other sugars and backbone not given here; further chemistry not fully specified) guide: GAGAACTACAAATATGGTTTGTTTTAGAGCTAGAAATAGCAAGTTAAAATAAGGCTAGTCCGTTATCAACTTGAAAAAGTGGCACCGAGTCGGTGCTTTT | 10.56% | 31.88% | 11.32% | 38.91% |  |
| GA107: ANGPTL3 gRNA; protospacer AGCCAATGGCCTCCTTCAGT (SEQ ID NO: 105) (nucleic acid, 2'-O-methyl at 1, 2, other sugars and backbone not given here; further chemistry not fully specified) guide: AGCCAATGGCCTCCTTCAGTGTTTTAGAGCTAGAAATAGCAAGTTAAAATAAGGCTAGTCCGTTATCAACTTGAAAAAGTGGCACCGAGTCGGTGCTTTT | 3.72% | 5.09% | 32.58% |  |  |

Reference: patent US20250152746A1, “BASE EDITING OF ANGPTL3 AND METHODS OF USING SAME FOR TREATMENT OF DISEASE” (Verve Therapeutics, Inc., priority 2020, published 2025)
